Reference: patent US20220306758A1 (Regeneron, published 2022)

How the values were obtained:
[1] = molecular target: T1, human BCMA on cells (endogenous, on multiple myeloma and lymphoma cell lines) (human, UniProt Q02223 1-184); test: cell-based or functional assay
T1 sequence: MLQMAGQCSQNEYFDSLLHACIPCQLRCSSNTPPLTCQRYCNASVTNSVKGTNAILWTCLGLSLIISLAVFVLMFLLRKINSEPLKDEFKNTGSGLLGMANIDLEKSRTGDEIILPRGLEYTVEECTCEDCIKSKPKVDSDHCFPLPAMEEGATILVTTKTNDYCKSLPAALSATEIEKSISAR

[2] = molecular target: T1, human BCMA on cells (endogenous, on …); test: cell-based or functional assay; remark: listed apart in the source

B1: REGN5458 (bsAb25441D), anti-BCMA x anti-CD3 bispecific antibody (bispecific antibody, V domains shown)
VH 1: EVQLVESGGGLVQPGGSLRLSCAASGFTFSNFWMTWVRQAPGKGLEWVANMNQDGSEKYYVDSVKGRFTISRDNAKSSLYLQMNSLRAEDTAVYYCARDREYCISTSCYDDFDYWGQGTLVTVSS
VH 2: EVQLVESGGGLVQPGRSLRLSCAASGFTFDDYSMHWVRQAPGKGLEWVSGISWNSGSKGYADSVKGRFTISRDNAKNSLYLQMNSLRAEDTALYYCAKYGSGYGKFYHYGLDVWGQGTTVTVSS
VL: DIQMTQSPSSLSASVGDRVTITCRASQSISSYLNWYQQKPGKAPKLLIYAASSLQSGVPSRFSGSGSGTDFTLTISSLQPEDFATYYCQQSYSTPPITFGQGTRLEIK
notes: Two different heavy chains paired with a common light chain; human Fc (captured by anti-human Fc in SPR); also called bsAb25441D9; mAb25441D
[1]
  MFI fold change over cells incubated in media only, U266, 18 h with 67 nM antibody, then stained with the same antibody: 1.4 fold
  MFI fold change over cells incubated in media only, U266, 18 h with 667 nM antibody, then stained with the same antibody: 2.3 fold
[2]
  MFI fold change over cells incubated in media only, NCI-H929, 18 h with 67 nM antibody, then stained with the same antibody: 2 fold
  MFI fold change over cells incubated in media only, NCI-H929, 18 h with 667 nM antibody, then stained with the same antibody: 3 fold
